From patent publication US20200299738

How the values were obtained:
[1] = target: T1, E. rectale acyl carrier protein (T protein; gene ereT)
T1 chain: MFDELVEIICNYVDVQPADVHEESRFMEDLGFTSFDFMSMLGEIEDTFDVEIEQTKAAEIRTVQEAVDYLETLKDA

[2] = target: T2, C. eutactus acyl carrier protein (T protein; gene ceuT)
T2 chain: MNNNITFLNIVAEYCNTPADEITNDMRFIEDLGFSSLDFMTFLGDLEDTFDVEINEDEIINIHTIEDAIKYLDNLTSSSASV

B1: C. eutactus fatty acyl-ACP synthetase (A protein; gene ceuA) (protein)
chain: MEENILEIVEKSCRIHRDVIAVKYLSHREIVEKSYGDMWDDIRKTAVILRNNGLCGTHIALVGSSSYEWICAYMAILFTGNTAVPLDANLSVSELHELLNRSGSIALFCGASRKDVITELTDDCPEMNIVFTMEKKVDIEHLEGADSNPQLAILSFEQLRNEITIPDDFAFADQDKDKMCTLMYTSGTTGKSKGVMLSQFNLAQNVENVYVNLEPGVTILSVLPIHHAFCLTMEWMKGISLGATICINDSLLHMLKNMKRFQPVGMLMVPLMVETIYKKLKDVNPLLPKKLVAKEAFGGKLEYIFCGGAYLDPMYVTEFKKYGIDILQGYGMTECSPVICSNNHRYNRPGSVGKLLDNCAVRFVDEEIQVKGTSVMSGYYDMPNETAEAFQDGWLCTGDLGYLDSDGFMYITGRKKNLIILANGENISPEELEGKLSIEPLISEIVITGDGNHLTAHIYPDQDFVDKKHMDAARTSEKLQKIIDTFNKNQPTYKRISALDIRKEPFEKSSTKKIKRNLV
[1]
  adenylation activity after swapping the T protein between the C. eutactus and E. rectale pathways: While the C protein lost activity, the A protein retained activity after swapping the T protein

B2: E. rectale fatty acyl-ACP synthetase (A protein; gene ereA) (protein)
chain: MLFHTIPDILSYANEAYGADDAIRWKKSKNEIESRTYSELKNDTDSFANAIEKLGKKGQHIAVIGPSSYEWIVSYLAITESGSVAVPIDASLPAADICELLDRASVRMLIFDEARSDVAEAAAKSCHDINVYVSMNSTEHCPQVLSFKGLIDDNRGSYEPAVAEDALCTIMFTSGTTGKSKGVMLTQNNLAENATCLDMKIGPHTVILSVLPIHHAYCLSMDILKGISLGSVICINDSIMRMAKNIQLFTPDMILMVPLMIETFARKLEEVRAAGLPAEPVRKKMFGERLHTICSGGAYLNPDYVDLFAEFGITILQGYGMTECSPVISTNLSWDIRKNSVGKLMPNCEAKTVDGELFVRGTSVMQGYYKMPKETEETLSDGWLHTGDLGYVDEDGYIYLTGRRKNLIITKNGENVSPEELENALSVNHLIKEIIVRESEGVIEAEIFPDREYAQNTGIADIRSALQALIDEYNVNAPAYKRIYSIKVRESEFEKTASRKIKRS
[2]
  adenylation activity after swapping the T protein between the C. eutactus and E. rectale pathways: While the C protein lost activity, the A protein retained activity after swapping the T protein
[1]
  LC-MS/MS detection of fatty acid thiotemplated T protein fragment after reaction with the A protein, Sfp and lauric acid: This was further confirmed by the detection of fatty acid thiotemplated T protein fragment using LC-MS/MS (FIG. 22)
  PPi level from ATP consumption (A and T proteins relative to negative control): Up to 30-fold increase in PPi level relative to negative control was observed with fatty acid substrates

B3: E. rectale condensation domain protein (fatty acyl-transferase, C protein; gene ereC) (protein)
chain: MKTRKGHNVYPITVAQKFHLYYAKYCPNMAVLNIGTSLTIGTELDWNVLRDSINYAYARNEAMRIRFTRDKDGECYQYIADVDEDFKERTVDFKDFTDVTMEEAENEMQGWTQVPFEFEDSPMTKIVMIKMPDGFNGVYFLGHHMVVDAQSLIAFLKDIIEIYCNAMYEGVPFPKDMCSYIEQLKKDLAYEAGSKAQLRDREFFEKLIRQSEPIYNGIDGTAKLDAARELMHDNKLRSAFNASDDVTSALDIFHLEAEPTKRLMDFCEKYHISLACLLLMGIRTFFQKENGFDDVSVNNAIARRATLKEKKSGGTRIHSFPFRTCFSKDVRFIDAVYTIRDKQNELFRHANYNPTEYFALRSKTYPQPKAGLTYEPMSLTYQPMTLKEKGLNDLGDIKYKTKWYPNGMTTQAMYLTVMHRPEDNGLDFSFEHQVKAVSRKQLEYMYYYLCKIMFKGAENPELTIGEIIKLV
[2]
  condensation activity (enzyme-catalysed FAA product formation) after swapping the T protein between the C. eutactus and E. rectale pathways: While the C protein lost activity, the A protein retained activity after swapping the T protein
[1]
  enzymatic production of hybrid FAA with the T and C protein pair from the same pathway and a swapped A protein: Swapping the A domain, while retaining the T and C protein pair from the same pathway, permitted the enzymatic production of hybrid FAA that incorporated the substrates from two different pathways

B4: C. eutactus condensation domain protein (fatty acyl-transferase, C protein; gene ceuC) (protein)
chain: MPRKYYPLTPSQKIHFKPIIEFGTQQVANISICMTLQAPLDFGLLKKCIQLEYERYECLRIRFTKVDQNGEVRQYVVSRDDRDIDYENLSWLSGDDAYHRMEEWSRIPFDGDNIPMNVIKMISLPGGYNGLYIKIDHRLMDSCGAIVMVNDIMELYCHYKFGTPYPEDMASFTDMVERDLKKSTDEKRVSKDRMYWQNVLEENGEPIYSDIQGQRILQESRRLHNDKSLRAADQEINDLSVATKNYHLDAEPTQNLLDFCMNNHISMTNLILMGIRTYLSKANGGQTDISIRNYVSRRSTHAEWVSGGSRAMAYPCRTIIDPDTEFLDAVFMIQDVQNHVYRHCNYDPELLSDQMKEMFHTPPHTTYESVGLTYQPLPIRLKNPHLENISVRSMWIPNGTSKQKIYLTVMHSANDLGLNFYFRYQTASLSEQDIELFYYYLMKIIFKGIAEPEMTVGEIIECI
[2]
  enzymatic production of hybrid FAA with the T and C protein pair from the same pathway and a swapped A protein: Swapping the A domain, while retaining the T and C protein pair from the same pathway, permitted the enzymatic production of hybrid FAA that incorporated the substrates from two different pathways
[1]
  condensation activity (enzyme-catalysed FAA product formation) after swapping the T protein between the C. eutactus and E. rectale pathways: While the C protein lost activity, the A protein retained activity after swapping the T protein
